In the test the target is PR55α regulatory subunit of PP2A (human (endogenous in CD18/HPAF)) (UniProt P63151). Description: co-IP; PR55α immunoprecipitated with anti-PR55α (2G9) from CD18/HPAF cells stably transduced with empty vector, Flag-YAP or Flag-YAP(5SA); immunoblotted with anti-PR55α (100C1) and anti-Flag (M2).
Chain of UniProt P63151 (P63151 whole entry): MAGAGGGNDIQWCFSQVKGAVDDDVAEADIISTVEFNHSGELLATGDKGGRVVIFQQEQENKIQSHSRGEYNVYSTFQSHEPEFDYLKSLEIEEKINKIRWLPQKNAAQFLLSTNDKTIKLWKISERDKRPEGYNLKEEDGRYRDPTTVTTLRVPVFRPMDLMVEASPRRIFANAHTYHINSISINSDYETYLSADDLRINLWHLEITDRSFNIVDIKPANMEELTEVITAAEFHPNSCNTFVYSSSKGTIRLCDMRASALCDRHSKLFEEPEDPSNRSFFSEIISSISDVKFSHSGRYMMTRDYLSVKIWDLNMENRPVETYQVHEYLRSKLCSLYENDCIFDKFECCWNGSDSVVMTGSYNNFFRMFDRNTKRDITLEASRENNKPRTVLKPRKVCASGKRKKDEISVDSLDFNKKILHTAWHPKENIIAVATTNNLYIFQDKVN

Consider Flag-YAP(WT) (natural protein), for which the fold of the level in the anti-PR55α immunoprecipitates against Flag-YAP(5SA) amounted to 28 fold.

Source of the values: publication PMC6817822.
